Laboratory results reported in patent US20210061911A1 (MacroGenics, published 2021).

Columns and labels:
[1] = biological target: T1, Human CD123-His (human, UniProt P26951 19-305); assay: kinetic binding analysis, method not given
T1 construct: also called interleukin 3 receptor alpha; IL-3Rα; not shown: His tag
T1 sequence (looked up): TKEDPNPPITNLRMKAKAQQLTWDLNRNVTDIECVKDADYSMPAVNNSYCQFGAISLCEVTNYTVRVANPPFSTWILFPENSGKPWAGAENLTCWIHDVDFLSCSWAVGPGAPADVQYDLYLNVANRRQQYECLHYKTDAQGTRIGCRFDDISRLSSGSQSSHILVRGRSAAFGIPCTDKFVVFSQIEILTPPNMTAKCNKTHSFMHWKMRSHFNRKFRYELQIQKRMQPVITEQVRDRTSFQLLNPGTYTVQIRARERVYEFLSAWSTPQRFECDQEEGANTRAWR

[2] = biological target: T2, Cynomolgus CD123-His (cynomolgus monkey); assay: kinetic binding analysis, method not given
T2 construct: also called cynomolgus monkey CD123

B1: DART-A, sequence-optimized CD123×CD3 bi-specific monovalent diabody (bispecific antibody)
chain 1: QAVVTQEPSLTVSPGGTVTLTCRSSTGAVTTSNYANWVQQKPGQAPRGLIGGTNKRAPWTPARFSGSLLGGKAALTITGAQAEDEADYYCALWYSNLWVFGGGTKLTVLGGGGSGGGGEVQLVQSGAELKKPGASVKVSCKASGYTFTDYYMKWVRQAPGQGLEWIGDIIPSNGATFYNQKFKGRVTITVDKSTSTAYMELSSLRSEDTAVYYCARSHLLRASWFAYWGQGTLVTVSSGGCGGGEVAALEKEVAALEKEVAALEKEVAALEK
chain 2: DFVMTQSPDSLAVSLGERVTMSCKSSQSLLNSGNQKNYLTWYQQKPGQPPKLLIYWASTRESGVPDRFSGSGSGTDFTLTISSLQAEDVAVYYCQNDYSYPYTFGQGTKLEIKGGGSGGGGEVQLVESGGGLVQPGGSLRLSCAASGFTFSTYAMNWVRQAPGKGLEWVGRIRSKYNNYATYYADSVKDRFTISRDDSKNSLYLQMNSLKTEDTAVYYCVRHGNFGNSYVSWFAYWGQGTLVTVSSGGCGGGKVAALKEKVAALKEKVAALKEKVAALKE
notes: no Fc; also called CD123×CD3 DART molecule
kon [1]: 160000 M⁻¹ s⁻¹ | kon [2]: 150000 M⁻¹ s⁻¹
